Data as given in the supplement of paper PMC10567573.

B1: ZNF263 (parent)
chain: KPYKCTLCGENFSHRSNLIRHQRI

Variants of: B1
Experiment: protein stability index of a GFP-peptide fusion (GPS, HEK-293T) (PSI 1-6); higher = more stable
Details: c terminus: a fixed tail appended
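Note: lentivirally expressed fusions sorted by FACS into six bins by GFP to DsRed ratio, PSI derived from sequencing read proportions per bin multiplied by bin number.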

Variant	protein stability index
KPYKYTLCGENFSHRSNLIRHQRI [C5Y]	1.96
KPYKCALCGENFSHRSNLIRHQRI [T6A]	2.43
KPYKCCLCGENFSHRSNLIRHQRI [T6C]	2.1
KPYKCDLCGENFSHRSNLIRHQRI [T6D]	2.7
KPYKCELCGENFSHRSNLIRHQRI [T6E]	2.9
KPYKCFLCGENFSHRSNLIRHQRI [T6F]	2.61
KPYKCGLCGENFSHRSNLIRHQRI [T6G]	2.67
KPYKCHLCGENFSHRSNLIRHQRI [T6H]	3.1
KPYKCILCGENFSHRSNLIRHQRI [T6I]	2.38
KPYKCKLCGENFSHRSNLIRHQRI [T6K]	2.69
KPYKCLLCGENFSHRSNLIRHQRI [T6L]	2.21
KPYKCMLCGENFSHRSNLIRHQRI [T6M]	2.08
KPYKCNLCGENFSHRSNLIRHQRI [T6N]	2.6
KPYKCPLCGENFSHRSNLIRHQRI [T6P]	2.42
KPYKCQLCGENFSHRSNLIRHQRI [T6Q]	2.21
KPYKCRLCGENFSHRSNLIRHQRI [T6R]	2.96
KPYKCSLCGENFSHRSNLIRHQRI [T6S]	3.17
KPYKCVLCGENFSHRSNLIRHQRI [T6V]	2.07
KPYKCWLCGENFSHRSNLIRHQRI [T6W]	2.53
KPYKCYLCGENFSHRSNLIRHQRI [T6Y]	1.98
KPYKCTACGENFSHRSNLIRHQRI [L7A]	3.07
KPYKCTCCGENFSHRSNLIRHQRI [L7C]	3.9
KPYKCTDCGENFSHRSNLIRHQRI [L7D]	3.02
KPYKCTECGENFSHRSNLIRHQRI [L7E]	3.63

Variant	protein stability index
KPYKCTFCGENFSHRSNLIRHQRI [L7F]	2.51
KPYKCTGCGENFSHRSNLIRHQRI [L7G]	2.18
KPYKCTHCGENFSHRSNLIRHQRI [L7H]	3.88
KPYKCTICGENFSHRSNLIRHQRI [L7I]	3.06
KPYKCTKCGENFSHRSNLIRHQRI [L7K]	3.22
KPYKCTMCGENFSHRSNLIRHQRI [L7M]	3.12
KPYKCTNCGENFSHRSNLIRHQRI [L7N]	2.78
KPYKCTPCGENFSHRSNLIRHQRI [L7P]	1.69
KPYKCTQCGENFSHRSNLIRHQRI [L7Q]	3.02
KPYKCTRCGENFSHRSNLIRHQRI [L7R]	2.28
KPYKCTSCGENFSHRSNLIRHQRI [L7S]	2.68
KPYKCTTCGENFSHRSNLIRHQRI [L7T]	2.51
KPYKCTVCGENFSHRSNLIRHQRI [L7V]	3.37
KPYKCTWCGENFSHRSNLIRHQRI [L7W]	2.69
KPYKCTYCGENFSHRSNLIRHQRI [L7Y]	3.25
KPYKCTLAGENFSHRSNLIRHQRI [C8A]	2.34
KPYKCTLDGENFSHRSNLIRHQRI [C8D]	2.62
KPYKCTLEGENFSHRSNLIRHQRI [C8E]	2.48
KPYKCTLFGENFSHRSNLIRHQRI [C8F]	2.11
KPYKCTLGGENFSHRSNLIRHQRI [C8G]	2.45
KPYKCTLHGENFSHRSNLIRHQRI [C8H]	2.1
KPYKCTLIGENFSHRSNLIRHQRI [C8I]	2.58
KPYKCTLKGENFSHRSNLIRHQRI [C8K]	3.61
KPYKCTLLGENFSHRSNLIRHQRI [C8L]	2.44

Variant	protein stability index
KPYKCTLMGENFSHRSNLIRHQRI [C8M]	1.83
KPYKCTLNGENFSHRSNLIRHQRI [C8N]	2.89
KPYKCTLPGENFSHRSNLIRHQRI [C8P]	2.45
KPYKCTLQGENFSHRSNLIRHQRI [C8Q]	2.74
KPYKCTLRGENFSHRSNLIRHQRI [C8R]	1.73
KPYKCTLSGENFSHRSNLIRHQRI [C8S]	4.1
KPYKCTLTGENFSHRSNLIRHQRI [C8T]	2.69
KPYKCTLVGENFSHRSNLIRHQRI [C8V]	2.47
KPYKCTLWGENFSHRSNLIRHQRI [C8W]	1.88
KPYKCTLYGENFSHRSNLIRHQRI [C8Y]	2.41
KPYKCTLCAENFSHRSNLIRHQRI [G9A]	2.19
KPYKCTLCCENFSHRSNLIRHQRI [G9C]	2.16
KPYKCTLCDENFSHRSNLIRHQRI [G9D]	2.01
KPYKCTLCEENFSHRSNLIRHQRI [G9E]	2.29
KPYKCTLCFENFSHRSNLIRHQRI [G9F]	2.43
KPYKCTLCHENFSHRSNLIRHQRI [G9H]	1.81
KPYKCTLCIENFSHRSNLIRHQRI [G9I]	4
KPYKCTLCKENFSHRSNLIRHQRI [G9K]	2.05
KPYKCTLCLENFSHRSNLIRHQRI [G9L]	1.16
KPYKCTLCMENFSHRSNLIRHQRI [G9M]	2.38
KPYKCTLCNENFSHRSNLIRHQRI [G9N]	2.36
KPYKCTLCPENFSHRSNLIRHQRI [G9P]	1.67
KPYKCTLCQENFSHRSNLIRHQRI [G9Q]	2.79
KPYKCTLCRENFSHRSNLIRHQRI [G9R]	2.5

Variant	protein stability index
KPYKCTLCSENFSHRSNLIRHQRI [G9S]	2.38
KPYKCTLCTENFSHRSNLIRHQRI [G9T]	1.39
KPYKCTLCVENFSHRSNLIRHQRI [G9V]	2.14
KPYKCTLCWENFSHRSNLIRHQRI [G9W]	1.62
KPYKCTLCYENFSHRSNLIRHQRI [G9Y]	2.61
KPYKCTLCGANFSHRSNLIRHQRI [E10A]	2.82
KPYKCTLCGCNFSHRSNLIRHQRI [E10C]	1.94
KPYKCTLCGDNFSHRSNLIRHQRI [E10D]	2.25
KPYKCTLCGFNFSHRSNLIRHQRI [E10F]	2.36
KPYKCTLCGGNFSHRSNLIRHQRI [E10G]	3.09
KPYKCTLCGHNFSHRSNLIRHQRI [E10H]	2.71
KPYKCTLCGINFSHRSNLIRHQRI [E10I]	2.35
KPYKCTLCGKNFSHRSNLIRHQRI [E10K]	3.4
KPYKCTLCGLNFSHRSNLIRHQRI [E10L]	1.88
KPYKCTLCGMNFSHRSNLIRHQRI [E10M]	2.67
KPYKCTLCGNNFSHRSNLIRHQRI [E10N]	2.24
KPYKCTLCGPNFSHRSNLIRHQRI [E10P]	2.09
KPYKCTLCGQNFSHRSNLIRHQRI [E10Q]	2.98
KPYKCTLCGRNFSHRSNLIRHQRI [E10R]	2.97
KPYKCTLCGSNFSHRSNLIRHQRI [E10S]	2.61
KPYKCTLCGTNFSHRSNLIRHQRI [E10T]	2.06
KPYKCTLCGVNFSHRSNLIRHQRI [E10V]	2.56
